Experimental data taken from patent US20230243823, “BIOMARKER SENSOR-BASED DETECTION OF DISEASE-SPECIFIC BIOMARKERS” (FORSCHUNGSZENTRUM JÜLICH GMBH, published 2023).

Molecular target: lactate dehydrogenase (PfLDH) (Plasmodium falciparum, UniProt Q76NM3 Q76NM3:1-316)
Assay: sandwich plasmon-enhanced fluorescence apta-immunosensor; PfLDH captured by anti-pLDH on AuNPs from diluted human blood; 0.1 uM aptamer in 10 mM PBS with 1 mM MgCl2 pH 7.1; signal orders of magnitude above PvLDH
Conditions: tags: obtained by bacterial expression; chain copies: 4
Experimental: Uninfected human blood was diluted 1:100 in 25 mM Tris buffer to reduce sample turbidity. The desired amount of Plasmodium falciparum lactate dehydrogenase (P<DH) was added to 1 ml of a diluted solution of the sample to obtain analyte concentrations ranging from 1 fM to 1 μm (based on the undiluted blood). The functionalised substrates were incubated with 1 ml of contaminated blood solution for 2 hours at room temperature.
The specificity of the apta immunosensor was tested against lactate dehydrogenase of Plasmodium vivax (P<LDH), which is 90% identical to P<LDH. The P<LDH was added to uninfected human blood (diluted 1:100 in 1 mL 25 mM Tris buffer) to obtain the highest analyte concentration tested in the calibration curve (1 μM based on undiluted whole blood).

CTGGGCGGTAGAACCATAGTGACCCAGCCGTCTAC (ssDNA) [malaria 2008s aptamer]
binding result: binds
